In patent US9657279B2, “Biological systems for production of commercially valuable compounds” (priority 2007, dated 2017):

B1: B. maritima: methyl halide transferase from Batis maritima, SEQ ID NO: 3 (protein, listed as Batis maritima)
chain: MSTVANIAPVFTGDCKTIPTPEECATFLYKVVNSGGWEKCWVEEVIPWDLGVPTPLVLHLVKNNALPNGKGLVPGCGGGYDVVAMANPERFMVGLDISENALKKARETFSTMPNSSCFSFVKEDVFTWRPEQPFDFIFDYVFFCAIDPKMRPAWGKAMYELLKPDGELITLMYPITNHEGGPPFSVSESEYEKVLVPLGFKQLSLEDYSDLAVEPRKGKEKLARWKKMNN

How the values were obtained:
[1] = test system: S. cerevisiae W303a; assay: Methyl iodide toxicity assay in yeast; assay type: cell-based; conditions: W303a lab strain, OD600 at 24 hours of growth, commercially available CH3I added
Description: (§1) FIG. 11A-D: Methyl iodide production in recombinant S. cerevisiae. FIG. 11A. CH3I production pathway. The B. maritima MHT is expressed with a N-terminal vacuole targeting tag. The […] MHT methylates iodide ions using SAM as a methyl donor. FIG. 11B, CH3I measured in culture headspace over time. Activity on glucose-grown cells is shown. FIG. 11C, CH3I yields in grams per liter of culture per day. Values for the culturable red algae E. muricata are taken from the literature. Yields from B. maritima MHT-expressing E. coli and S. cerevisiae are calculated by comparison to standard curves. FIG. 11D, CH3I toxicity in yeast. Exponential phase cultures were diluted to an OD600 of 0.05 and commercially available CH3I was added. OD600 was measured at 24 hours of growth. The W303a lab strain is shown in filled boxes, the DNA methylation-sensitive RAD50Δ mutant is shown in open boxes.
(§2) Individual colonies were inoculated in YP media with 2% glucose and grown overnight. Cultures were diluted to an OD600 of 0.05 and methyl iodide was added to the specified amount. […] OD600 was measured by spectrometry with YP media used as a blank. Each data point was performed in triplicate. The RAD50Δ mutant was obtained from the Saccharomyces Genome Deletion Project (Invitrogen).

[2] = test system: RAD50Δ mutant; assay type: cell-based, S. cerevisiae; conditions: RAD50Δ mutant compared with W303a, OD600 at 24 hours
Description: as §1, §2

[3] = test system: E. coli; conditions: library of 89 genes, 100 mM sodium halide salt, headspace GC-MS
Description: Methyl halide production was sampled by analyzing the headspace gas using GC-MS (Supplementary Information).
Bacteria carrying MHT expression vectors were inoculated from freshly streaked plates and grown overnight. Cells were diluted 100-fold into media containing 1 mM IPTG and 100 mM appropriate sodium halide salt. Culture tubes were sealed with a rubber stopper and grown at 37 degrees for 3 hours. Yeast carrying MHT expression vectors were streaked on uracil dropout plates from freezer stocks (15% glycerol) and grown for 48 hours. Individual colonies were inoculated into 2 mL of synthetic complete uracil dropout media and grown overnight at 30 degrees. Cultures were next inoculated into 100 mL fresh synthetic complete uracil dropout media and grown for 24 hours. […] 10 mL of this concentrated culture was aliquoted into 14 mL culture tubes and sealed with a rubber stopper. Cultures were grown at 30 degrees with 250 rpm shaking.

[4] = test system: S. cerevisiae W303; assay: Methyl iodide production by vacuole-targeted MHT in yeast; assay type: cell-based; conditions: N-terminal carboxypeptidase Y tag versus cytosolic enzyme, vector pCM190
Description: In one approach, for illustration and not limitation, the coding sequence of B. maritima methylchloride transferase (MCT) is synthesized and cloned into a high copy vector under the control of a tet-repressible CYC promoter (plasmid pCM190, Gari et al, 1997, Yeast 13:837-48.). The MCT coding sequence is fused to a N-terminal peptide domain from carboxypeptidase Y known to target pendant proteins to the yeast vacuole (amino acid sequence: […] (SEQ ID NO:1), Valls et al., 1990, J Cell Biol. 111:361-8.) This expression system is transformed into S. cerevisiae strain W303a. […] Cultures are grown at 30 degrees with 250 rpm shaking, and methyl iodide production assayed at specified intervals via GC-MS. […] Oven temperature is programmed from 50 degrees (1 min) to 60 degrees (10 degrees/min).
We fused a 16 amino acid vacuolar targeting tag ([…]) from yeast carboxypeptidase Y to the N-terminus of the B. maritima MCT and expressed the enzyme from the vector pCM190. […] We next expressed the cytosolic and vacuolar targeted enzymes in a VPS33A background, which is unable to form functional vacuoles.

[5] = test system: E. coli
Description: Methyl halide production can be measured by gas chromatography. In the experiments described below an Agilent gas chromatography/mass spectrometry (GC/MS) system was used. Most often the “AIR.U” tune file, uses an ionization voltage of 1341. In some experiments an ionization voltage of about 1250 was used. A solvent delay of 0 was set and the scan parameters set to 15-100 MW. The injection port and column were preset to 50° C. The sample to be tested was mixed by shaking for a few seconds. 100 μL of the headspace gas was extracted with a gas-tight syringe. The sample gas was manually injected into the GCMS injection port. The GCMS program was started with the following settings: 1:00 at 50° C.; a ramp of 10° C. per min to 70° C. (the sample typically came off at ˜52° C.); 1:00 at 70° C. The column was then cleaned (ramp to 240° C. for 2 minutes). The sample peak was identified by extracting the GC peak corresponding to 50MW (−0.3, +0.7). This peak was integrated to produce the “GC 50MW” data.
For each strain a single colony was picked and grown overnight (10-14 hrs) in 20 mL of LB miller in a 30 mL glass test tube with aeration (a loose cap) at 37 C and 250 rpm shaking. The culture was spun down in a swinging bucket centrifuge for 5 min @3000×g. […]

| Molecule | level up to which yeast were resistant to deleterious methylating effects of methyl iodide [1] | sensitivity to methyl iodide [2] | methyl halide activity on chloride, bromide and iodide [3] | increase in methyl iodide production rate by targeting to the vacuole [4] | methyl bromide production ([5]; 165 mM NaBr, 100 uM IPTG, 1.5 hours, headspace GC/MS) | specificity of methyl halide production ([5]; methyl bromide versus methyl iodide) |
| --- | --- | --- | --- | --- | --- | --- |
| CI [methyl iodide] | > 5000 µg/mL | increased sensitivity | – | – | – | – |
| B1 | – | – | highest activity of all genes on each ion | 50% | best | significant specificity for methyl bromide production |
